According to paper PMC7530003 (Developmental cell, 2020):

Target: F-actin prepared by polymerizing β-actin (UniProt P60709 1-375)
Assay: co-sedimentation

B1: ZO-1 ABR construct for co-sedimentation (EGFP-ZO-1(1159–1382)-Dual Strep) (domain or fragment, human, UniProt Q07157 1159-1382, looked up)
chain: EQPAPGYDTHGRLRPEAQPHPSAGPKPAESKQYFEQYSRSYEQVPPQGFTSRAGHFEPLHGAAAVPPLIPSSQHKPEALPSNTKPLPPPPTQTEEEEDPAMKPQSVLTRVKMFENKRSASLETKKDVNDTGSFKPPEVASKPSGAPIIGPKPTSQNQFSEHDKTLYRIPEPQKPQLKPPEDIVRSNHYDPEEDEEYYRKQLSYFDRRSFENKPPAHIAASHLSE
Question: How did the Kd turn out when B1 was run?
Answer: ~10 µM
